The record followed here is the supplement of paper PMC9170038.

This series has as its system MS2 coat protein. The experiment in a line: apparent KD of MS2 coat protein; designed switch direction (-1 OFF switch, 1 ON switch): 1; higher = weaker reporter binding. In outline: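 Designed RNA switches sharing common flanks were transcribed on Illumina chips by stalled E. coli RNA polymerase. They were titrated with SNAP-549-labelled MS2 coat protein, from 0.7 or 1.5 nM doubling to 3 µM, in Tris-HCl pH 7.5 buffer with KCl, MgCl2, BSA, DTT, tRNA and Tween-20. Titrations ran without input, with 200 uM small-molecule ligand, or with an oligonucleotide input. The apparent KD of each design is the median over its clusters, after curve-fitting of normalised cluster fluorescence.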

Setting [1] is: input ligand: microRNA oligo, concentration not stated.
The mark [2] stands for this setting: Eterna round: R95, input ligand: microRNA oligo, concentration not stated.
The mark [3] stands for this setting: Eterna round: R95, input ligand: FMN 200 uM.
Where [4] appears, read: Eterna round: R95, input ligand: none.

Take “CCAUAACGGUGAGGAUAUCGUUGCGAUAAGUGACGAGAAGGCAUUCAUGUGAAAUAAACAUACAUGAGGAUCACCCAUGUUGUA [Omei SS(NG)1 Bv1] (Eterna round: R96, puzzle: Same State NG 1)”: the “apparent KD of MS2 coat protein” value worked out at 23.7 nM (input ligand: FMN 200 uM), 57.2 nM under setting [1] and 57.7 nM (input ligand: none).

Take “CCGAUGAUAGGACAGGAUAUGACUGUCGUCACAUGAGGAUCACCCAUGUCCCGGCAAUGCCACCGUUAGAAGGGUCCCAUCUCGG [Uslainarin] (Eterna round: R96, puzzle: Same State 2)”: the “apparent KD of MS2 coat protein” value stood at 18.2 nM (input ligand: FMN 200 uM), 18.6 nM under setting [1] and 23.8 nM (input ligand: none).

On to “CCGAUGAUAGGACAGGAUAUGACUGUCGUCACAUGAGGAUCACCCAUGUCCCGGCAAUGCCACCGUUAGAAGGGUCCCAUCUCGG [Uslainarin] (puzzle: Same State 2)”, for which the “apparent KD of MS2 coat protein” value under setting [2] was found to be 15.6 nM.

“CCGCCGGGAACCCGGCGAAAACAUGAGGAUCACCCAUGUACACAGGAUAUCGUGACAUUAACAAACGAGAAGGGUGGCCGAGAC [Lelateen] (Eterna round: R96, puzzle: Same State NG 3)”: the “apparent KD of MS2 coat protein” value was 453 nM (input ligand: FMN 200 uM), 189 nM under setting [1] and 182 nM (input ligand: none).

In the case of “CCGGAUAAUGGAGGAUAUGGAGCCUUAUUGGCUCCAGAAGGCUAACAUGAGGAUCACCCAUGUAGUCCGGCGGUCAAUAGACCG [Eli NG1ss - 67] (Eterna round: R96, puzzle: Same State NG 1)”, the “apparent KD of MS2 coat protein” value (input ligand: FMN 200 uM) was determined as 10.9 nM, the “apparent KD of MS2 coat protein” value under setting [1] was 11.5 nM and the “apparent KD of MS2 coat protein” value (input ligand: none) came to 21.6 nM.

As for “CCGGCAAGUAUAGGAUAUCCCGCAACAGAAACGGGAGAAGGGUGCCAAACAUGAGGAUCACCCAUGUACACCGGAAAUAAAUAA [Lazaorra] (Eterna round: R96, puzzle: Same State NG 1)”, the “apparent KD of MS2 coat protein” value reads like this: (input ligand: FMN 200 uM) 54.9 nM; under setting [1], 56.4 nM; (input ligand: none) 46.9 nM.

“CCGUAAUAUGGAGGAUAUGGAGCCUUAUUGGCUCCAGAAGGUCAUAACACAUGAGGAUCACCCAUGUCGGCGGUCAAUAGACCG [Eli NG1ss - 76] (Eterna round: R96, puzzle: Same State NG 1)”: the “apparent KD of MS2 coat protein” value (input ligand: FMN 200 uM) was 19.4 nM, the “apparent KD of MS2 coat protein” value under setting [1] is 74.9 nM and the “apparent KD of MS2 coat protein” value (input ligand: none) was found to be 68.3 nM.

For “CCGUAGAUGGAAGGAUAUGGAGCCUUAUUGGCUCCAGAAGGUUCAAUAACAUGAGGAUCACCCAUGUCGGCGGUCAAUAGACCG [Eli NG1ss - 80] (Eterna round: R96, puzzle: Same State NG 1)”, the “apparent KD of MS2 coat protein” value by setting is: (input ligand: FMN 200 uM) 20.5 nM; under setting [1], 27.7 nM; (input ligand: none) 44.9 nM.

On to “CCUGACAUGAGGAUCACCCAUGUAGGGAAACAAUGACAUAUGGAGGAUAUACACCCGAAAGGCGCGUAGAAGGUCACAUGUCCA [Eternabot solution 5] (Eterna round: R96, puzzle: Same State NG 3)”, for which the “apparent KD of MS2 coat protein” value is, setting by setting: (input ligand: FMN 200 uM) 10.7 nM; under setting [1], 10.8 nM; (input ligand: none) 13 nM.

In the case of “CGAAGUCGUAGAGGAUAUGGGUGGCCGGAGUCAACAUGAGGAUCACCCAUGUGCUAAUAUGAGAUCCAGAAGGCUGCGAACGGG [Eternabot solution 16] (Eterna round: R96, puzzle: Same State NG 2)”, the “apparent KD of MS2 coat protein” value amounted to 57.1 nM (input ligand: FMN 200 uM), 31.4 nM under setting [1] and 430 nM (input ligand: none).

For the sequence “CGCCGACAUGAGGAUCACCCAUGUGAGCGACUCACAGGAUAUACGCGAUAACAAAGUCGCGUAGAAGGGUGCUCCU [Iscezaso] (puzzle: Same State 1)”, the “apparent KD of MS2 coat protein” value is, setting by setting: under setting [3], 23.4 nM; under setting [2], 19.2 nM; under setting [4], 23.3 nM.

For the sequence “CGCGAACAGGCAGGAUAUAUAGAGCCAAAUAUUGUAGAAGGGCCACGUGCGGGAAGAGAACACAUGAGGAUCACCCAUGUUCGA [Eternabot solution 5] (Eterna round: R96, puzzle: Same State NG 1)”, the “apparent KD of MS2 coat protein” value by setting is: (input ligand: FMN 200 uM) 27.4 nM; under setting [1], 27.9 nM; (input ligand: none) 30.7 nM.

Take “CGGCGCUGUCGAGAGGAUAUGCGGUGAUGGACAUGAGGAUCACCCAUGUUAGCGAUAGCAUCACGGUAGAAGGCUCUUACGCCUG [Soteed Omei mod 23] (Eterna round: R96, puzzle: Same State 2)”: the “apparent KD of MS2 coat protein” value (input ligand: FMN 200 uM) is 217 nM, the “apparent KD of MS2 coat protein” value under setting [1] came out at 257 nM and the “apparent KD of MS2 coat protein” value (input ligand: none) was determined as 717 nM.

For “CGGCGCUGUCGAGAGGAUAUGCGGUGAUGGACAUGAGGAUCACCCAUGUUAGCGAUAGCAUCACGGUAGAAGGCUCUUACGCCUG [Soteed Omei mod 23] (puzzle: Same State 2)”, the “apparent KD of MS2 coat protein” value under setting [3] worked out at 91.5 nM, the “apparent KD of MS2 coat protein” value under setting [2] stood at 130 nM and the “apparent KD of MS2 coat protein” value under setting [4] stood at 205 nM.

For “CGGCGCUGUUGAGAGGAUAUGCGGUGAUGGACAUGAGGAUCACCCAUGUUAGCGAUAGCAUUACGGUAGAAGGCUCUACAGCUGC [Soteed Omei mod 6] (puzzle: Same State 2)”, the “apparent KD of MS2 coat protein” value under setting [2] came to 18.9 nM.

Regarding “CGGCUCCGUGGAGGAUAUGGGCCUGCCCGGGAUAACGGGCCUAACACAUGAGGAUCACCCAUGUCCCAGAAGGCCGCUGGAGCC [Enineseson] (Eterna round: R96, puzzle: Same State NG 2)”, the “apparent KD of MS2 coat protein” value was determined as 14 nM (input ligand: FMN 200 uM), 39.1 nM under setting [1] and 54.4 nM (input ligand: none).

For the sequence “CGUAGGCCUCUCAACAUGAGGAUCACCCAUGUACGUGAAACGUAGGAUAUCACACAACUAAUGUGUGAGAAGGGCGCGCCGGAG [Eternabot solution 25] (Eterna round: R96, puzzle: Same State NG 3)”, the “apparent KD of MS2 coat protein” value under setting [1] was 91.4 nM.

For the sequence “CGUCCAGCCUGAGCUGGACAAAAGCAUGUACAUGAGGAUCACCCAUGUUCAUGUACAAGCUUUUUGCUCGUCUUAAC [salish99_208a_r3_039] (puzzle: Sensor for hsa-mir-208a)”, the “apparent KD of MS2 coat protein” value runs as follows: under setting [3], 660 nM; under setting [2], 18.2 nM; under setting [4], 616 nM.

As to “CGUCCAGCCUGAGCUGGACAAAAGCAUGUACAUGAGGAUCACCCAUGUUCAUGUACAAGCUUUUUGCUCGUCUUAGC [salish99_208a_r3_075] (Eterna round: R96, puzzle: Sensor for hsa-mir-208a)”, the “apparent KD of MS2 coat protein” value was 598 nM (input ligand: FMN 200 uM), 13.8 nM under setting [1] and 616 nM (input ligand: none).

With “CGUCCAGCCUGAGCUGGACAAAAGCAUGUACAUGAGGAUCACCCAUGUUCAUGUACAAGCUUUUUGCUCGUCUUAGC [salish99_208a_r3_075] (puzzle: Sensor for hsa-mir-208a)”, the “apparent KD of MS2 coat protein” value reads like this: under setting [3], 730 nM; under setting [2], 14.3 nM; under setting [4], 860 nM.

For “CGUCCAGCCUGAGCUGGACAAAAGCAUGUACAUGAGGAUCACCCAUGUUCAUGUACAAGCUUUUUGCUCGUCUUAGG [salish99_208a_r3_074] (puzzle: Sensor for hsa-mir-208a)”, the “apparent KD of MS2 coat protein” value runs as follows: under setting [3], 593 nM; under setting [2], 20.1 nM; under setting [4], 744 nM.

For the sequence “CUAAAACAUGAGGAUCACCCAUGUCAACAAAGUCGAGGAUAUGGGCAAAUAAAAUAAGAACCAGAAGGCGAAUAAC [salish99_SS1_r3_014] (puzzle: Same State 1)”, the “apparent KD of MS2 coat protein” value under setting [2] came to 222 nM.

Take “CUCCGGAAGCGAGGAUAUGCAGAGGAUCACCCUGCAGAAGGCGCAAAAGCGAGGAUAUGCAGAGGAUCACCCUGCAGAAGGCGC [pwkr ssNG DX.33] (Eterna round: R96, puzzle: Same State NG 1)”: the “apparent KD of MS2 coat protein” value (input ligand: FMN 200 uM) was found to be 10.2 nM, the “apparent KD of MS2 coat protein” value under setting [1] worked out at 33.3 nM and the “apparent KD of MS2 coat protein” value (input ligand: none) is 39.9 nM.

For the sequence “CUCCUAUCGGGAGGAUAUGGUGCCUUGUUGGUGCUAGAAGGUCCAACAUGAGGAUCACCCAUGUGGGAGUGGUUGAGAGACCUC [SS NG10LRO13] (Eterna round: R96, puzzle: Same State NG 1)”, the “apparent KD of MS2 coat protein” value (input ligand: FMN 200 uM) worked out at 131 nM, the “apparent KD of MS2 coat protein” value under setting [1] is 105 nM and the “apparent KD of MS2 coat protein” value (input ligand: none) is 137 nM.

With “CUGACGUGAUCAGGAUAUUGUAAGACAAUGUUGCAAGAAGGGAUUAAUGAGCCCGAACAGACAUGAGGAUCACCCAUGUGUCAG [Eternabot solution 41] (Eterna round: R96, puzzle: Same State NG 1)”, the “apparent KD of MS2 coat protein” value was determined as 69.5 nM (input ligand: FMN 200 uM), 51.6 nM under setting [1] and 67.6 nM (input ligand: none).

As to “CUGAGCGAUCAAGGAUAUCACGUCGAUUAGACGUGAGAAGGUGAUAAUUACAUGAGGAUCACCCAUGUAUAACAUGAAGCUCAG [SSNG1/9-A2] (Eterna round: R96, puzzle: Same State NG 1)”, the “apparent KD of MS2 coat protein” value amounted to 16 nM (input ligand: FMN 200 uM), 17.3 nM under setting [1] and 19.8 nM (input ligand: none).

Regarding “CUUGCCCAGUCAGGAUAUGGGAAAGGAAGUGUACCAGAAGGGACAAGAAAGGACAUGAGGAUCACCCAUGUCGGGCAGGCGAGA [PowerStrip SSNG 1.23] (Eterna round: R96, puzzle: Same State NG 1)”, the “apparent KD of MS2 coat protein” value (input ligand: FMN 200 uM) came to 32.8 nM, the “apparent KD of MS2 coat protein” value under setting [1] worked out at 82.3 nM and the “apparent KD of MS2 coat protein” value (input ligand: none) stood at 97.1 nM.

As to “GAAAUAAUGAAAGGAUAUACAUGAGGAAUUCUCGUAGAAGGUUCAUGACAUGAGGAUCACCCAUGUAUCGCUCGAAAGAGCGAG [Mat - Same State NG 1 - JL mod - D31] (Eterna round: R96, puzzle: Same State NG 1)”, the “apparent KD of MS2 coat protein” value (input ligand: FMN 200 uM) is 510 nM, the “apparent KD of MS2 coat protein” value under setting [1] stood at 152 nM and the “apparent KD of MS2 coat protein” value (input ligand: none) amounted to 64 nM.
